Where a chain is given by its changes, count along the chain named.
B1: 1994_01_C07: fully human anti-α11β1 mAb (phage display); HCDR3 SEQ ID NO: 267, LCDR3 SEQ ID NO: 271 (antibody, V domains shown)
VH: QVQLVQSGAEVKKPGASVKVSCKASGYTFTSYGISWVRQAPGQGLEWMGWISAYNGNTNYAQKLQGRVTMTTDTSTSTAYMELRSLRSDDTAAYYCARVTGITGTTIDPWGQGTMVTVSS
VL: DIQMTQSPSSLSASVGDRVTITCRASQSISSYLNWYQQKPGKAPKLLIYDASSLESGVPSRFSGSGSGTEFTLTISSLQPDDFAVYYCQQYNNWPQTFGQGTKVEIK
B2: 1994_01_D12: fully human anti-α11β1 mAb (phage display); HCDR3 SEQ ID NO: 267, LCDR3 SEQ ID NO: 334 (antibody, V domains shown)
VH: B1 VH with A16S, D73N, A93V, M115L
VL: DIQMTQSPSSLSASVGDRVTITCRASQSISSYLNWYRQKPGKAPKLLIYAASSLQSGVPSRFSGSGSGTDFTLTISSLQPEDAATYYCQQYDSQSGTFGQGTKLEIK

Key:
[1] = test system: CHO-K1 cells expressing human α11; experiment: Cell adhesion inhibition (xCelligence), type I collagen; type: cell-based; conditions: CHO-K1 hu α11 cells; read-out: IC50 of blocking cell adhesion to type I collagen
Method: 0.6×10^6 cells/mL were incubated with each antibody at a range of concentrations for 20 minutes at 37° C. E-Plate VIEW 96 PET plate coated with 100 ng/mL type I collagen or PBS overnight at room temperature was blocked in 3% BSA for 1 house at room temperature. After washing the plate with PBS, cell and antibody mixture was added to the wells and the plate was places into an xCelligence machine. Cell adhesion was recorded over 6 hours. The time point of maximum cell adhesion was used for comparison relative to control.
A CHO-K1 hu α11 cell line was used to assess the ability of mAbs to block α11β1-mediated binding to type I collagen. […] In the “Untreated” condition, cells were plated on type I collagen but no antibody was added and in the “Uncoated” condition, cells were seeded onto BSA-coated wells containing no type I collagen. Statistics were performed using one-way ANOVA followed by Dunnett's multiple comparisons test. […] Therefore, it is possible that these mAbs bind on an α11β1 domain that keeps the integrin in a low or intermediate affinity state. […] Nine human mAbs were also tested for their ability to inhibit the binding of human CHO-α11 cells to type I collagen.

[2] = test system: CHO cell lines expressing α11; experiment: Collagen gel contraction assay; type: cell-based, human; conditions: vs untreated
Method: 24-well plates were blocked with 2% BSA in PBS overnight at 37° C. The following day, the plates were washed 3 times with PBS before being used in the assay. Human CHO cell lines expressing α11 were harvested and resuspended at 1.25×10^6 in ExpiCHO Expression Medium (Gibco™ Cat #A2910002). The collagen gel solution was prepared by diluting 3 mg/mL stock collagen type I (Gibco™ Collagen I Rat Protein, Tail Cat #A1048301) to 1 mg/mL in the media containing the CHO cells. Sodium hydroxide was added to the solution to neutralize the pH and 400 μL of the collagen solution was added to each well of the 24-well plates. For the wells where the antibodies were included in the collagen gel solution, CHO cells were prepared at 2.5×10^6 and the antibodies were prepared at 2× final concentration in ExpiCHO media. The cells and antibodies were then combined 1:1 before the addition of the stock collagen type 1. The gels were allowed to polymerize for 60 minutes at 37° C. Antibodies were added to the ExpiCHO media, which was then layered on top of the polymerized gel (400 μL/well). The gels were incubated for 6 days at 37° C. before gel contraction was quantified. Images of each well were analyzed using Image J and gel contraction was determined as a percentage of the initial gel area.
Selected exemplary antibodies were tested for the ability to inhibit cell-mediated 3D gel contraction because this ability is directly linked to the functionality of the exemplary antibodies.

α11β1 Headpiece = experiment: SPR binding to α11β1 Headpiece; parameters: species or system human; conditions: SPR data
Method: (§1) The affinity of antibodies for human α11β1 was measured by surface plasmon resonance assay (SPR). Affinity was measured at pH 7.6 and 25° C. with a Biacore T200 instrument. Anti-HIS antibody was immobilized on the SPR sensor surface using EDC/NHS covalent attachment. HIS-tagged human α11β1 was captured on the sensor surface and a single-cycle kinetics assay was used. Increasing concentrations of test antibody were injected in series over the sensor-bound α11β1. Dissociation was monitored for 1000 seconds. A sensor surface with only anti-HIS antibody and a series of blank injections were used to double-reference subtract the data. A 1:1 Langmuir model was fit to the data to estimate the kinetic association and dissociation constants. The affinity (equilibrium dissociation constant) of the interaction was calculated by dividing the kinetic dissociation constant by the kinetic association constant. Between injection cycles α11β1 and bound antibody were removed with an injection of 10 mM glycine at pH 1.5.
(§2) The binding affinity of antibodies for the α11β1 Headpiece and α11β1 I Domain as measured by SPR is shown in FIG. 10A and FIG. 10B, respectively.

α11β1 I Domain = molecular target: T1, α11β1 I Domain (Homo sapiens, UniProt Q9UKX5); experiment: SPR binding to α11β1 I Domain; conditions: SPR data
T1 sequence (Q9UKX5 164-345 limits assumed): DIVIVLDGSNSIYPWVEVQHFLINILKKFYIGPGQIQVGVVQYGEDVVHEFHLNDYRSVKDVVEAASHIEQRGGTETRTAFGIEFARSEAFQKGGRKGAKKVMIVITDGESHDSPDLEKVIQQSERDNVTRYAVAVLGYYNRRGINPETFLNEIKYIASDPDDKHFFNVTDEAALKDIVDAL
Method: as §1, §2

Molecule	IC50 [1] [nM]	inhibition of CHO-hu α11-mediated collagen gel contraction [2]	binding to the headpiece domain of α11β1 (α11β1 Headpiece)	binding to the I domain of α11β1 (α11β1 I Domain)
B1	3.3	inhibited CHO-hu α11-mediated collagen gel contraction	do not bind	do not bind
B2		inhibited CHO-hu α11-mediated collagen gel contraction		
